# T1: MKK7 in cell lysate (immunoprecipitated with MKK7 antibody; the cells' own MKK7) (human, UniProt O14733 2-419, limits assumed)
# T1 sequence: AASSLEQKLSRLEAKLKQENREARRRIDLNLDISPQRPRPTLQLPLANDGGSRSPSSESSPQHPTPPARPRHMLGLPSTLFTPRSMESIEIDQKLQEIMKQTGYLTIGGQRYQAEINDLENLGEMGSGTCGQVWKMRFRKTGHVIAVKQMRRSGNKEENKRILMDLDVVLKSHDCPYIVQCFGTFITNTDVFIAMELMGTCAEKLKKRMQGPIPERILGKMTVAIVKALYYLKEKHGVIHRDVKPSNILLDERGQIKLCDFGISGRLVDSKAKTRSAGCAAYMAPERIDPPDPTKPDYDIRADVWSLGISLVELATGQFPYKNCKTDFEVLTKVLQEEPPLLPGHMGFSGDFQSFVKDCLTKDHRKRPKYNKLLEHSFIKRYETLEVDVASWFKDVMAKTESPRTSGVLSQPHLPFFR
# T2: MKK7 (full length MKK7 expressed from the pGST vector in HEK293T cells) (human, UniProt O14733 1-419)
# T2 construct: also called full length MKK protein; not shown: GST tag of the pGST (pEBG) vector
# T2 sequence: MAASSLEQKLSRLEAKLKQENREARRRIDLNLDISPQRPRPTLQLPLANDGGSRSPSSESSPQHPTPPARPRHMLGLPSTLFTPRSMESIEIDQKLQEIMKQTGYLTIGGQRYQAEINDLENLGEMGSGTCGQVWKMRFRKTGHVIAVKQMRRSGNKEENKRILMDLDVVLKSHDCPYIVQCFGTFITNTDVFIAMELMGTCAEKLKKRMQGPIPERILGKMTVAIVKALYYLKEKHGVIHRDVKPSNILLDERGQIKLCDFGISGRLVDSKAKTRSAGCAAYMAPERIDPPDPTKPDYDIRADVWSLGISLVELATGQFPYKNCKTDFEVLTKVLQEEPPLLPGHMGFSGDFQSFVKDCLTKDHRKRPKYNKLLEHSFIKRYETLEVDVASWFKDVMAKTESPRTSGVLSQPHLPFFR
# T3: MKK7 fragment D1 (pGST vector, HEK293T) (human, UniProt O14733 85-419, limits assumed)
# T3 construct: also called MKK7-D1; not shown: GST tag of the pGST expression vector
# T3 sequence: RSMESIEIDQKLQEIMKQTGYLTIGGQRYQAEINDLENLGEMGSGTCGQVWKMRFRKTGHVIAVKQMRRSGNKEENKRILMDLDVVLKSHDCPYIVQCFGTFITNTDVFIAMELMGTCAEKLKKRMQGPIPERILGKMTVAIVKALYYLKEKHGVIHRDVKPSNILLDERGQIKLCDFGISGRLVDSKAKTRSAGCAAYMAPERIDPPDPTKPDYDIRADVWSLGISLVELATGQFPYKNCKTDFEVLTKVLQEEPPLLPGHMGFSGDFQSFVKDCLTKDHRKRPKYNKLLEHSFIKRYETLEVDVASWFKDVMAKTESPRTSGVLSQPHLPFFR
# B1: TIP41 in cell lysate (immunoprecipitated with TIP41 antibody; the cells' own TIP41) (other)
# chain: MMIHGFQSSHRDFCFGPWKLTASKTHIMKSADVEKLADELHMPSLPEMMFGDNVLRIQHGSGFGIEFNATDALRCVNNYQGMLKVACAEEWQESRTEGEHSKEVIKPYDWTYTTDYKGTLLGESLKLKVVPTTDHIDTEKLKAREQIKFFEEVLLFEDELHDHGVSSLSVKIRVMPSSFFLLLRFFLRIDGVLIRMNDTRLYHEADKTYMLREYTSRESKISSLMHVPPSLFTEPNEISQYLPIKEAVCEKLIFPERIDPNPADSQKSTQVE
# notes: also called TIPP41
# B2: TIP41 fragment D1 (pHA vector, HEK293T) (other)
# chain: MMIHGFQSSHRDFCFGPWKLTASKTHIMKSADVEKLADELHMPSLPEMMFGDNVLRIQHGSGFGIEFNATDALRCVNNYQGMLKVACAEEWQESRTEGEHSKEVIKPYDWTYTTDYKGTLLGESLKLKVVPTTDHIDTEKLKAREQIKFFEEVLLFEDELHDHGVSSL
# notes: also called TIP41-D1; not shown: HA tag of the pHA vector
# B3: TIP41 fragment D2 (pHA vector, HEK293T) (other)
# chain: MMIHGFQSSHRDFCFGPWKLTASKTHIMKSADVEKLADELHMPSLPEMMFGDNVLRIQHGSGFGIEFNATDALRCVNNYQGMLKVACAEEWQESRTEGEHSKEVIKPYDWTYTTDYKGTLLGESLKLKVVPTTDHIDTEKLKAREQIKFFEEVLLFEDELHDHGVSSLSVKIRVMPSSFFLLLRFFLRIDGVLIRMNDTRLYHEADKTYMLREYTSRESKISSLMHVPPS
# notes: also called TIP41-D2; not shown: HA tag of the pHA vector
# B4: TIP41 fragment D4 (pHA vector, HEK293T) (other)
# chain: MLKVACAEEWQESRTEGEHSKEVIKPYDWTYTTDYKGTLLGESLKLKVVPTTDHIDTEKLKAREQIKFFEEVLLFEDELHDHGVSSL
# notes: also called TIP41-D4; not shown: HA tag of the pHA vector
# B5: TIP41 fragment D5 (pHA vector, HEK293T) (other)
# chain: MMIHGFQSSHRDFCFGPWKLTASKTHIMKSADVEKLADELHMPSLPEMMFGDNVLRIQHGSGFGIEFNATDALRCVNNYQGMLKVACAEEWQESRTEGEH
# notes: also called TIP41-D5; not shown: HA tag of the pHA vector
# B6: TIP41 (full length TIP41 protein expressed from the pHA vector in HEK293T cells) (other)
# chain: B1 chain
# notes: Cloned from liver cancer cell RNA into pHA; also called TIPRL; TOR Signaling Pathway Regulator-Like; not shown: HA tag of the pHA vector (pcDNA3.1 with HA tag)
# B7: MKK7 fragment D5 (pGST vector, HEK293T) (other)
# chain: AGCAAYMAPERIDPPDPTKPDYDIRADVWSLGISLVELATGQFPYKNCKTDFEVLTKVLQEEPPLLPGHMGFSGDFQSFVKDCLTKDHRKRPKYNKLLEHSFIKRYETLEVDVASWFKDVMAKTESPRTSGVLSQPHLPFFR
# notes: also called MKK7-D5; not shown: GST tag of the pGST expression vector
# How the values were obtained:
# [1] = biological target: T1, MKK7 in cell lysate (immunoprecipitated …); assay: immunoprecipitation (legend of FIG. 11B)
# Experimental: In order to identify interaction between TIP41 and MKK7, each antibody was used to perform immunoprecipitation, and binding between TIP41 and MKK7 was identified with Western Blotting. Immunoprecipitation is done by adding about 2 μg antibody of protein to be precipitated into 1 mg cell lysate and reacted for about 2 hours in about 4° C., and add about 30 μl Protein G sepharose bead into each and react for about 12 hours in about 4° C. Afterwards, about 1 ml PBST[0.1% Tween20 included PBS] buffer was added for washing, and the procedure was repeated for about 4 times. Then 100 μl 1× sample buffer (for Western Blotting) was added into the washed bead, and then it was boiled for about 5 minutes in about 95° C. heating block, and was cooled in ice for about 2 minutes. Afterwards, Western Blotting was performed using MKK7 and TIP41 antibody.
# [2] = biological target: T2, MKK7 (full length MKK7 expressed from …); assay: GST pull-down from HEK293T lysate, Western blot
# [3] = biological target: T3, MKK7 fragment D1 (pGST vector, HEK293T); assay: GST pull-down from HEK293T lysate, Western blot
# [4] = biological target: B6; assay: GST pull-down from HEK293T lysate, Western blot
Binder,binding result [2],further results
B1,–,binding result [1]: binds
B2,no binding,–
B3,no binding,–
B4,no binding,–
B5,no binding,–
B6,–,binding result [3]: no binding
B7,–,binding result [4]: no binding

# Reference: US20120315284A1 (KOREA RESEARCH INSTITUTE OF BIOSCIENCE AND BIOTECH, published 2012)
